Reference: patent US20230212270A1 (UNIVERSITY OF PITTSBURGH OF THE COMMONWEALTH SYSTEM OF …, published 2023)

Tests used:
[1] = molecular target: T1, Human serum albumin (HSA) (human, UniProt P02768 25-609); assay: affinity as cited in the structural example (SPR)
T1 construct: In SPR the HSA was immobilised on a CM5 chip

[2] = molecular target: T1, Human serum albumin (HSA); assay: SPR (Biacore 3000), HSA immobilised on CM5 chip, Nb as analyte
Description: Nb Affinity measurement by surface plasmon resonance (SPR) Surface plasmon resonance (SPR, Biacore 3000 system, GE Healthcare) was used to measure Nb affinities. Briefly, a protein antigen such as GST, OMP25 PDZ domain or human serum albumin was immobilized to the flow channels of an activated CM5 sensor-chip. Protein analytes were diluted to 10-30 µg/ml in 10 mM sodium acetate, pH 4.5, and injected into the SPR system at 5 µl/min for 420 s. The surface was then blocked by 1 M ethanolamine-HCl (pH 8.5). For each Nb analyte, a series of dilution spanning approximately 1,000 fold was injected in duplicate, with HBS-EP+ running buffer (GE-Healthcare) containing 2 mM DTT, at a flow rate of 20- 30 µl/min for 120- 180 s, followed by a dissociation time of 5 - 20 mins based on dissociation rate. Between each injection, the sensor chip surface was regenerated with low pH buffer containing 10 mM glycine-HCl (pH 1.5- 2.5) at a flow rate of 40-50 µl/min for 30 s, or high pH buffer of 20-40 mM NaOH (pH 12- 13) at 40-50 µl/min for 30 s. Binding sensorgrams for each Nb were processed and analyzed using BIA evaluation by fitting with 1:1 Langmuir model or 1:1 Langmuir model with mass transfer.

T1 sequence (P02768 25-609 limits assumed, form in doubt): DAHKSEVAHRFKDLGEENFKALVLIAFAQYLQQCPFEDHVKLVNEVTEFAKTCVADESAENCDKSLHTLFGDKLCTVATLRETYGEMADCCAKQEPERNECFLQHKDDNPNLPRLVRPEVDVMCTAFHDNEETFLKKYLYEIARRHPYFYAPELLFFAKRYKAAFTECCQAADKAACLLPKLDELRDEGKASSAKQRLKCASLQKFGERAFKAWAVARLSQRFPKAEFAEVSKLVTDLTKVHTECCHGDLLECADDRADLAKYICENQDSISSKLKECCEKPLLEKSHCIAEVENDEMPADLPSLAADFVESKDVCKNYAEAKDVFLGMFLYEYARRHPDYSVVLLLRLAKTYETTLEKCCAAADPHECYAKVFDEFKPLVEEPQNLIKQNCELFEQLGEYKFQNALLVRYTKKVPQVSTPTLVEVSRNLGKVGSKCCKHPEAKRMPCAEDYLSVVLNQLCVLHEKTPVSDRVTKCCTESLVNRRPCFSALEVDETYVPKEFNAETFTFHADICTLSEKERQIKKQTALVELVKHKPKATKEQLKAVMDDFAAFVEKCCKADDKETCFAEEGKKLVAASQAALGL

B1: Nb80 (VHH)
VHH: EVQLVESGGGLVQAGGSLRLSCTASGRTFTPYTMGWFRQAPGKEREFVASILWSGNNRDYADSVKGRFAISRDNAKNTAYLQMTSLKPEDTAVYYCAAGDGLGFYRSVNQYDYWGQGTQVTVS
notes: His-tagged nanobody from E. coli
Kd [1]: 160 pM | Kd [2]: 166 pM | koff [2]: 2.75e-05 s⁻¹ | kon [2]: 166000 M⁻¹ s⁻¹
